# T1: FcγRIIb extracellular domain with C-terminal His tag (human, UniProt P31994 43-217)
# T1 construct: extracellular domain; also called FcgRIIb; 2b; not shown: His tag at the C terminus
# T1 sequence (looked up): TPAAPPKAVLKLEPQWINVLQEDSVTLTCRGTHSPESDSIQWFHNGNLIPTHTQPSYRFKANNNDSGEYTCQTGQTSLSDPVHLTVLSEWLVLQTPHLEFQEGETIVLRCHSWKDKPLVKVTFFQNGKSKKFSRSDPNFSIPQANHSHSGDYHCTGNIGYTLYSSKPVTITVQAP
# B1: GpH7-A5/GpH7-B3 variant S239_19Q/GpL16-k0 (antibody, human IgG1, kappa)
# heavy 1: not shown
# heavy 2: not shown
# light: DIVMTQSPLSLPVTPGEPASISCQASESLVHSNRNTYLHWYLQKPGQSPQLLIYKVSNRFSGVPDRFSGSGSGTDFTLKISRVEAEDVGVYYCSQNTHVPPTFGQGTKVEIERTVAAPSVFIFPPSDEQLKSGTASVVCLLNNFYPREAKVQWKVDNALQSGNSQESVTEQDSKDSTYSLSSTLTLSKADYEKHKVYACEVTHQGLSSPVTKSFNRGEC
# notes: Heterodimerized anti-glypican-3 IgG1; the substitution stands in the GpH7-B3 chain only; also called He Ab
# What was measured:
# [1] = molecular target: T1, FcγRIIb extracellular domain with …; test: SPR (Biacore), antibody captured on antigen peptide chip, FcγR as analyte; relative binding amount
# [2] = molecular target: T2, FcγRIIIa extracellular domain with C-terminal His tag (human, UniProt P08637 17-208); test: as above
# T2 construct: extracellular domain; also called FcgRIIIa; 3a; not shown: His tag at the C terminus
# [3] = molecular target: T2, FcγRIIIa extracellular domain with …; test: SPR; He/Con_3a divided by He/Con_2b (binding to FcγRIIb is the reference)
# Method: Analysis of interaction between objective antibody and the FcγR was carried out using Biacore T100 (GE Healthcare). HBS-EP+ (GE Healthcare) was used as the running buffer, and the measurement temperature was set to 25° C. Chips produced by immobilizing the antigen peptide by the amine coupling method to a Series S Sencor Chip CM5 (GE Healthcare), or alternatively, chips produced by allowing preliminarily biotinylated antigen peptides to interact with and immobilize onto a Series S Sensor Chip SA (certified) (GE Healthcare) were used. Antibodies of interest were captured onto an antigen peptide-immobilized chip, and allowed to interact to each FcγR diluted with running buffer. To regenerate and repeatedly use the chip, the antibodies captured on the chip were washed off by reacting 10 mM glycine-HCl, pH 1.5.
# The FcγR-binding activity of each antibody was assessed primarily using as an indicator the FcγR-binding activity and dissociation constant for FcγR.
# T2 sequence (P08637 17-208): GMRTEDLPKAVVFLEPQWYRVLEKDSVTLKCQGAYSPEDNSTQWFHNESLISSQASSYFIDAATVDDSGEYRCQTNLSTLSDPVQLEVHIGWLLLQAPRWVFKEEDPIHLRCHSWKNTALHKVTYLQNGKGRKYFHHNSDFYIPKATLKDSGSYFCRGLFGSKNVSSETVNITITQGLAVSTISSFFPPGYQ
binder,measurement,setting,value
B1,He/Con_2b,[1],86.1 % of GpH7-A5/GpH7-B3/GpL16-k0 (=100)
same,He/Con_3a,[2],56.9 % of GpH7-A5/GpH7-B3/GpL16-k0 (=100)
same,He_3a/2b (IIIa/IIb),[3],0.66 ratio
